# Measurements published in PMC3548949.
# What was measured:
# CC(=O)NCCCNCCCCNCCCN = test: steady-state oxygen consumption, oxygen electrode; format: biochemical, Saccharomyces cerevisiae; details: 1.2 mM oxygen, pH 9.0, 10% glycerol, 25 °C, pH 9.0
# NCCCNCCCCNCCCN = test: steady-state oxygen consumption, oxygen electrode; format: biochemical, Saccharomyces cerevisiae; details: 1.2 mM oxygen, pH 9.35, 10% glycerol, 25 °C, pH 9.35
Substance,Km (CC(=O)NCCCNCCCCNCCCN),kcat (CC(=O)NCCCNCCCCNCCCN),kcat/Km (CC(=O)NCCCNCCCCNCCCN),Km (NCCCNCCCCNCCCN),kcat (NCCCNCCCCNCCCN),kcat/Km (NCCCNCCCCNCCCN)
Fms1 (Saccharomyces cerevisiae S288C; N195A),104 ± 14 µM,8.1 ± 0.2 s⁻¹,78000 ± 13000 M⁻¹ s⁻¹,127 ± 27 µM,4.9 ± 0.2 s⁻¹,38500 ± 8300 M⁻¹ s⁻¹
Fms1 (Saccharomyces cerevisiae S288C; D94N),30 ± 5 µM,9.7 ± 0.2 s⁻¹,320000 ± 50000 M⁻¹ s⁻¹,320 ± 88 µM,2.0 ± 0.3 s⁻¹,–
